B1: X-linked retinitis pigmentosa GTPase regulator (Homo sapiens), Q92834 (parent)
chain: MREPEELMPDSGAVFTFGKSKFAENNPGKFWFKNDVPVHLSCGDEHSAVVTGNNKLYMFGSNNWGQLGLGSKSAISKPTCVKALKPEKVKLAACGRNHTLVSTEGGNVYATGGNNEGQLGLGDTEERNTFHVISFFTSEHKIKQLSAGSNTSAALTEDGRLFMWGDNSEGQIGLKNVSNVCVPQQVTIGKPVSWISCGYYHSAFVTTDGELYVFGEPENGKLGLPNQLLGNHRTPQLVSEIPEKVIQVACGGEHTVVLTENAVYTFGLGQFGQLGLGTFLFETSEPKVIENIRDQTISYISCGENHTALITDIGLMYTFGDGRHGKLGLGLENFTNHFIPTLCSNFLRFIVKLVACGGCHMVVFAAPHRGVAKEIEFDEINDTCLSVATFLPYSSLTSGNVLQRTLSARMRRRERERSPDSFSMRRTLPPIEGTLGLSACFLPNSVFPRCSERNLQESVLSEQDLMQPEEPDYLLDEMTKEAEIDNSSTVESLGETTDILNMTHIMSLNSNEKSLKLSPVQKQKKQQTIGELTQDTALTENDDSDEYEEMSEMKEGKACKQHVSQGIFMTQPATTIEAFSDEEVGNDTGQVGPQADTDGEGLQKEVYRHENNNGVDQLDAKEIEKESDGGHSQKESEAEEIDSEKETKLAEIAGMKDLREREKSTKKMSPFFGNLPDRGMNTESEENKDFVKKRESCKQDVIFDSERESVEKPDSYMEGASESQQGIADGFQQPEAIEFSSGEKEDDEVETDQNIRYGRKLIEQGNEKETKPIISKSMAKYDFKCDRLSEIPEEKEGAEDSKGNGIEEQEVEANEENVKVHGGRKEKTEILSDDLTDKAEDHEFSKTEELKLEDVDEEINAENVESKKKTVGDDESVPTGYHSKTEGAERTNDDSSAETIEKKEKANLEERAICEYNENPKGYMLDDADSSSLEILENSETTPSKDMKKTKKIFLFKRVPSINQKIVKNNNEPLPEIKSIGDQIILKSDNKDADQNHMSQNHQNIPPTNTERRSKSCTIL
partner: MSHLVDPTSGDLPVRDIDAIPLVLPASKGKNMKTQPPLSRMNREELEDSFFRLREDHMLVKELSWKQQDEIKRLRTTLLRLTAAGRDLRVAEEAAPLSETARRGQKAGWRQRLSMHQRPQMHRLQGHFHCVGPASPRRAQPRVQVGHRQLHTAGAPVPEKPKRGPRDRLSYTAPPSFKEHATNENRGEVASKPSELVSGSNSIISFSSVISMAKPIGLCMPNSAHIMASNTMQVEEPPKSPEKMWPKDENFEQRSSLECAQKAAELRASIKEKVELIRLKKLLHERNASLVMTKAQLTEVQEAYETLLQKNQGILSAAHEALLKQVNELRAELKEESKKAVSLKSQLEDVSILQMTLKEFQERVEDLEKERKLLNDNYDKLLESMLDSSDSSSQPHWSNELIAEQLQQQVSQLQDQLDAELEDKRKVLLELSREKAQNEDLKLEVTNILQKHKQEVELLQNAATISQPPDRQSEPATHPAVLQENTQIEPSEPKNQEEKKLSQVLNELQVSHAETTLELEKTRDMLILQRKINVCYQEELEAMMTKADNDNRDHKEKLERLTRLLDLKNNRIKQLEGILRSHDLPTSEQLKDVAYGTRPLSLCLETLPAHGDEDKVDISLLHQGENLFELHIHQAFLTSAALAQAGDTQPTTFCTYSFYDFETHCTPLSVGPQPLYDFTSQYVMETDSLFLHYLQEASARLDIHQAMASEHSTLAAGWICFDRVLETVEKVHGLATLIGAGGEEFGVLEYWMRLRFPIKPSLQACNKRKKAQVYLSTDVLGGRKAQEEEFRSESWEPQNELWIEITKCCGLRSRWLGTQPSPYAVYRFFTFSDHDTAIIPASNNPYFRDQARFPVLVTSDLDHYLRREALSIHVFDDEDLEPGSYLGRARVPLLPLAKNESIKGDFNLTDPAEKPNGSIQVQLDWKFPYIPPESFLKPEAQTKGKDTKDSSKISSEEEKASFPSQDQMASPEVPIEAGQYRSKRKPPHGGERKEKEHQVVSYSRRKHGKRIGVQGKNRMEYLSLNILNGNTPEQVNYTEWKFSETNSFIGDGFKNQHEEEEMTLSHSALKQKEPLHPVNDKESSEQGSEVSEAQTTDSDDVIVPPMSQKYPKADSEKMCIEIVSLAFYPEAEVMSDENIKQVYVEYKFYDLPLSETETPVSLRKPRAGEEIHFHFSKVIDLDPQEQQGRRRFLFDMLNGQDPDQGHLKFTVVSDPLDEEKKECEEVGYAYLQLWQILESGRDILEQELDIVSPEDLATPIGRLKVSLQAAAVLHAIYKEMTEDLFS
B2: Ubiquitin-conjugating enzyme E2 E3 (Homo sapiens), Q969T4 (parent)
chain: MSSDRQRSDDESPSTSSGSSDADQRDPAAPEPEEQEERKPSATQQKKNTKLSSKTTAKLSTSAKRIQKELAEITLDPPPNCSAGPKGDNIYEWRSTILGPPGSVYEGGVFFLDITFSSDYPFKPPKVTFRTRIYHCNINSQGVICLDILKDNWSPALTISKVLLSICSLLTDCNPADPLVGSIATQYLTNRAEHDRIARQWTKRYAT
partner: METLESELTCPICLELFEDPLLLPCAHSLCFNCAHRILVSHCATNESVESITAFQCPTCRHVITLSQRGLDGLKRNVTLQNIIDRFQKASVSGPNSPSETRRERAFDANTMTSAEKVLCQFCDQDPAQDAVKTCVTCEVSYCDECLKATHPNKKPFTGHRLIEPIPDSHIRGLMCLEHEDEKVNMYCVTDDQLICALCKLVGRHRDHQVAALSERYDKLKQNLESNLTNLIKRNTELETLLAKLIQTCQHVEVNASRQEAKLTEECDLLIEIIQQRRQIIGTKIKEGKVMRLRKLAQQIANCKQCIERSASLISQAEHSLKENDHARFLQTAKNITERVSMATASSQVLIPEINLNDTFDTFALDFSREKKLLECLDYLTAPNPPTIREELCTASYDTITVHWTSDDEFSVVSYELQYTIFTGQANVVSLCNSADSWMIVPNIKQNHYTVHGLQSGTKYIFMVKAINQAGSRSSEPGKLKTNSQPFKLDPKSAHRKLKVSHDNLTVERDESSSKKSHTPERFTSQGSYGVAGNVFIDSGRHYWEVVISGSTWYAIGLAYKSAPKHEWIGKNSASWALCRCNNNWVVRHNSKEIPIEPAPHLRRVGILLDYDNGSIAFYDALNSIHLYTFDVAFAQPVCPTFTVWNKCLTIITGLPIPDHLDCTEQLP
B3: Centrosomal protein of 55 kDa (Homo sapiens), Q53EZ4 (parent)
chain: MSSRSTKDLIKSKWGSKPSNSKSETTLEKLKGEIAHLKTSVDEITSGKGKLTDKERHRLLEKIRVLEAEKEKNAYQLTEKDKEIQRLRDQLKARYSTTTLLEQLEETTREGERREQVLKALSEEKDVLKQQLSAATSRIAELESKTNTLRLSQTVAPNCFNSSINNIHEMEIQLKDALEKNQQWLVYDQQREVYVKGLLAKIFELEKKTETAAHSLPQQTKKPESEGYLQEEKQKCYNDLLASAKKDLEVERQTITQLSFELSEFRRKYEETQKEVHNLNQLLYSQRRADVQHLEDDRHKTEKIQKLREENDIARGKLEEEKKRSEELLSQVQFLYTSLLKQQEEQTRVALLEQQMQACTLDFENEKLDRQHVQHQLHVILKELRKARNQITQLESLKQLHEFAITEPLVTFQGETENREKVAASPKSPTAALNESLVECPKCNIQYPATEHRDLLVHVEYCSK
partner: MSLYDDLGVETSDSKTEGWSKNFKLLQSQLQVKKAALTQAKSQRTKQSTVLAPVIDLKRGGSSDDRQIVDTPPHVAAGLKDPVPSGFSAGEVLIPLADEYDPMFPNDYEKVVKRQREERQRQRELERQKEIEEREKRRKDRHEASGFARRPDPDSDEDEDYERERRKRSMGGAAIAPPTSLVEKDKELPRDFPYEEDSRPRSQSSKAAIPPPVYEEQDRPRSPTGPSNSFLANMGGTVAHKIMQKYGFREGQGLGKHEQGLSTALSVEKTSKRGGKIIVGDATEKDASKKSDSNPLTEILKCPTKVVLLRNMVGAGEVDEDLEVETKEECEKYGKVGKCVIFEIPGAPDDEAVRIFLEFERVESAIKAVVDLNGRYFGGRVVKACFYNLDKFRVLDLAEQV
B4: IQ motif and ubiquitin-like domain-containing protein (Homo sapiens), Q8NA54 (parent)
chain: MSNQQEKYEAQNIVNSTEESDDAFDTVTIPVPSEEPQESDQTEEHESGIEQFSESHAIHVEEQSDQSFSSLEPDNEQLMEEVISPRQVSYTPQHHEKQYAMQRPNDDSLAFLDKIKSVKESLQESVEDSLATVKVVLIPVGQEIVIPFKVDTILKYLKDHFSHLLGIPHSVLQIRYSGKILKNNETLVQHGVKPQEIVQVEIFSTNPDLYPVRRIDGLTDVSQIITVTVQTGLDQYQQVPVEIVKSDFHKPFLGGFRHKVTGVEYHNAGTQTVPKRIPERLSIFCRDTQTVFQKKNLQQTTNTTSTQMTNIGVYVSNMTDKLVTPGKYFSAAEYHAQRLKAVIVIQTYYRQWHAKIFVENLRRQKSLRLEWETQQELRKIREKEEWIKLDYHRRHNPKTNEDFEFLYNALEFWRQEELTRINQSFTGAERKAALCELLEKETQIIASIGRHRYIAYMANQEAAIQAFLDKCSAPKIWRTPNGKTIEMDTQFTIRARELQNIYKCIMLKNISQDERLDVLLTLKHTVKEHECKLTQEILELIDREVDLMMRGVKHHNLEGLRKRIATLFFHYIKTPLFNPEVAKYLKVPQDPLKFYKKIYFCHSCQLYLPSTEFSVSSTSRRIYRCRNCINLQNEAQKRESFLKYKCLLQQLYYTEADYEDDSKIAFLMQLQDIQYLTENIWASQSVLSACDNLSDLVMVRWNKSLEWSPWNCILLTKDEAAAHLKLTSIEEGYERSFIHKIKHKHILAKNYFSQVPVLASFILDDGEIDEIRWKYHSDTTPKIIESQRPPH
partner: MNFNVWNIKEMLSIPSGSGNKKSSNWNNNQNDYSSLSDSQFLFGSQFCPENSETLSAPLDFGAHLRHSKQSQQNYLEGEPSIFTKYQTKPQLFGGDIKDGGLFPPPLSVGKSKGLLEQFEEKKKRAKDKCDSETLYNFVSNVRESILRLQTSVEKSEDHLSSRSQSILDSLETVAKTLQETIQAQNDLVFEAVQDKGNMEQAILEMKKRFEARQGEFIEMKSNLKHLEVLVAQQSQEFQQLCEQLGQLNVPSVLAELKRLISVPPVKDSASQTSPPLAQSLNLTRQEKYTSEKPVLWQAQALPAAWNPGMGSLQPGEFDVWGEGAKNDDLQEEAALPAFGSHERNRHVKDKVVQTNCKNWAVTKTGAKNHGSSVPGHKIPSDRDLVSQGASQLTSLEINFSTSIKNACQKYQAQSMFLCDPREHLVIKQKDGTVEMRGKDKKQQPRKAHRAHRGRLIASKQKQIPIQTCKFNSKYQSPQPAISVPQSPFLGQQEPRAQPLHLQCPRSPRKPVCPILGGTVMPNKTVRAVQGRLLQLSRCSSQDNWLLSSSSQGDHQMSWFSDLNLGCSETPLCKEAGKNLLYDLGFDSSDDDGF
B5: Protein DBF4 homolog A (Homo sapiens), Q9UBU7 (parent)
chain: MNSGAMRIHSKGHFQGGIQVKNEKNRPSLKSLKTDNRPEKSKCKPLWGKVFYLDLPSVTISEKLQKDIKDLGGRVEEFLSKDISYLISNKKEAKFAQTLGRISPVPSPESAYTAETTSPHPSHDGSSFKSPDTVCLSRGKLLVEKAIKDHDFIPSNSILSNALSWGVKILHIDDIRYYIEQKKKELYLLKKSSTSVRDGGKRVGSGAQKTRTGRLKKPFVKVEDMSQLYRPFYLQLTNMPFINYSIQKPCSPFDVDKPSSMQKQTQVKLRIQTDGDKYGGTSIQLQLKEKKKKGYCECCLQKYEDLETHLLSEQHRNFAQSNQYQVVDDIVSKLVFDFVEYEKDTPKKKRIKYSVGSLSPVSASVLKKTEQKEKVELQHISQKDCQEDDTTVKEQNFLYKETQETEKKLLFISEPIPHPSNELRGLNEKMSNKCSMLSTAEDDIRQNFTQLPLHKNKQECILDISEHTLSENDLEELRVDHYKCNIQASVHVSDFSTDNSGSQPKQKSDTVLFPAKDLKEKDLHSIFTHDSGLITINSSQEHLTVQAKAPFHTPPEEPNECDFKNMDSLPSGKIHRKVKIILGRNRKENLEPNAEFDKRTEFITQEENRICSSPVQSLLDLFQTSEEKSEFLGFTSYTEKSGICNVLDIWEEENSDNLLTAFFSSPSTSTFTGF

The values below come from IntAct's records for PubMed 31515488.

One assay covers variants of B1. The conditions noted are these: with rpgr1_human RPGRIP1, Q96KN7.
Take C302S: the “effect of a mutation on the interaction” value was “with no effect”.

The next assay covers variants of B2. To be noted: with tri18_human MID1, O15344.
As to S117T, the “effect of a mutation on the interaction” value was “with no effect”.

Another assay covers variants of B3. To be noted: with spf45_human RBM17, Q96I25.
For C236R, the “effect of a mutation on the interaction” value is on record as “with no effect”.
On to H57Q, for which the “effect of a mutation on the interaction” value was “with no effect”.
On to R348K, for which the “effect of a mutation on the interaction” value is on record as “with no effect”.
For A244P, the “effect of a mutation on the interaction” value is recorded as “with no effect”.

The next assay covers variants of B4. To be noted: with iho1_human IHO1, Q8IYA8.
Consider I501F, for which the “effect of a mutation on the interaction” value is “disrupting interaction strength”.
For V126M, the “effect of a mutation on the interaction” value is “with no effect”.

The variants in another assay derive from B5. The conditions noted are these: with cdc7_human CDC7, O00311.
In the case of I526V, the “effect of a mutation on the interaction” value is given as “with no effect”.
Same read-out and setting: the same measure for K579E: “with no effect”; for L306I: “with no effect”.
